Ends that are not written are not given here. * marks the point of attachment. Biotin = O=C1N[C@H]2[C@H](CS[C@H]2CCCCC(=O)*)N1

Sequences and labels used below:
B1: DNAM-1 C-terminal peptide AA22L, biotinylated (peptide)
peptide: Biotin-TREDIYVNYPTFSRRPKTRV
B2: V-gated Ca2+ channel C-terminal peptide AA46L (peptide)
peptide: Biotin-SSGGRARHSYHHPDQDHWC
notes: Marked (S), sticky peptide with high background; also called V-gated Ca2+ channel (S)
B3: CDw137 (4-1BB ILA) C-terminal peptide AA21L (peptide)
peptide: Biotin-QEEDGCSCRFPEEEEGGCEL
modifications: cysteine pairing not given here
notes: Marked (S), sticky peptide with high background; also called CDw137 (4-1BB ILA) (S)
B4: CD44 C-terminal peptide AA9L, biotinylated (peptide)
peptide: Biotin-QFMTADETRNLQNVDMKIGV
notes: also called CD44 (long form)

T6 sequence (P29475 11-100 limits assumed): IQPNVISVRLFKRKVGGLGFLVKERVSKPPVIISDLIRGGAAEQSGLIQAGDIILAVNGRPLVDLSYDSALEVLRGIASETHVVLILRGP
T7 sequence (Q2T9M1 other isoform, or with tags, fused parts or gaps limits assumed): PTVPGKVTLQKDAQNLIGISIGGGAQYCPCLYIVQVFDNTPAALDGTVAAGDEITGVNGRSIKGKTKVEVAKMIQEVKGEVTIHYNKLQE

In one assay the target is T1, GST-prIL16 fusion protein (PDZ domains 1-2) (Homo sapiens (Human), UniProt Q14005 1111-1324).
T1 construct: also called putative interleukin 16 precursor; not shown: glutathione S-transferase encoded by vector pGEX-3X (Pharmacia)
T1 sequence: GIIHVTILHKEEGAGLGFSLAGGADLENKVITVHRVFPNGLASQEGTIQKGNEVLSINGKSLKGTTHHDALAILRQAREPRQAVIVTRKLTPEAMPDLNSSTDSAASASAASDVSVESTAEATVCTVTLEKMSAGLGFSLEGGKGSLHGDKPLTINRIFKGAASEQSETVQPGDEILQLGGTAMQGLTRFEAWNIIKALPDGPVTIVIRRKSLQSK
Nature of the assay: A/G assays.
Consider B1, for which the binding result is reported as “no binding”.

As for B2, the binding result is reported as “no binding”.

With B3, the binding result is “no binding”.

Another assay has as its target T2, GST-mouse syntenin fusion protein (Mus musculus, UniProt O08992 108-286).
T2 construct: also called Mus musculus Syntenin; not shown: glutathione S-transferase encoded by vector pGEX-3X (Pharmacia)
T2 chain: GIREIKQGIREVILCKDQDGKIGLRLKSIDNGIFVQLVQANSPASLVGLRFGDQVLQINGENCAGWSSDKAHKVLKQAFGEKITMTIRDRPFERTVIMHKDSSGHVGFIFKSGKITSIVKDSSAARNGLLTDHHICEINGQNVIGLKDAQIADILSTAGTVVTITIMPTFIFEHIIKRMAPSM
Nature of the assay: A/G assays.
With B1, the binding result was “no binding”.

B2: the binding result is reported as “no binding”.

For the molecule B3, the binding result is “no binding”.

Another assay concerns the target T3, GST-TAX-IP40 PDZ domain fusion protein (human, UniProt Q6B4M5 150-252 (rat entry)).
T3 construct: also called TAX40; not shown: glutathione S-transferase encoded by vector pGEX-3X (Pharmacia)
T3 sequence: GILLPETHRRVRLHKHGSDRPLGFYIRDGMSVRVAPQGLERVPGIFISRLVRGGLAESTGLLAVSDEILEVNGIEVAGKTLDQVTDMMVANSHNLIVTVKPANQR
Nature of the assay: A/G assays.
For the molecule B4, the binding result is listed as “no binding”.

Take B1: the binding result is listed as “no binding”.

With B2, the binding result is “no binding”.

Turning to B3, the binding result is on record as “no binding”.

Another assay addresses T4, K559 PDZ-GST fusion protein (Homo sapiens (Human), UniProt Q9Y6V0 4489-4593).
T4 construct: Order of GST and PDZ part and limits not seen in the excerpts
T4 sequence: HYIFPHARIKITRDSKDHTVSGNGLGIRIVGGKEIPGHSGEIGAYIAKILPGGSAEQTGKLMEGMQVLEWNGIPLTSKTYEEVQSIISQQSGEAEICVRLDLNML
Nature of the assay: A/G assays.
Consider B4, for which the binding result was “no binding”.

On to B1, for which the binding result is on record as “no binding”.

Take B2: the binding result is listed as “no binding”.

For a further assay, the target named is T5, GST-cytohesin binding protein PDZ domain fusion protein (Homo sapiens (Human), UniProt O60759 74-165).
T5 construct: also called CBP; not shown: glutathione S-transferase encoded by vector pGEX-3X (Pharmacia)
T5 sequence: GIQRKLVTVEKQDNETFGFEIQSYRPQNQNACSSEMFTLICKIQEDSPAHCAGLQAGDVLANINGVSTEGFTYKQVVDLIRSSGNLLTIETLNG
Nature of the assay: A/G assays.
Turning to B4, the binding result is listed as “no binding”.

Consider B1, for which the binding result is listed as “no binding”.

Take B2: the binding result is “no binding”.

Regarding B3, the binding result was “no binding”.

The next assay addresses T6, NOS1 PDZ-GST fusion protein (Homo sapiens (Human), UniProt P29475 11-100).
T6 construct: Order of GST and PDZ part and limits not seen in the excerpts
Description: A/G assays.
Turning to B4, the binding result is listed as “no binding”.

In the case of B2, the binding result is “no binding”.

Regarding B3, the binding result is “no binding”.

The next assay concerns the target T7, PICK1 PDZ-GST fusion protein (Bos taurus (Bovine), UniProt Q2T9M1 17-105).
T7 construct: Order of GST and PDZ part and limits not seen in the excerpts
Nature of the assay: A/G assays.
As for B4, the binding result was “no binding”.

For B1, the binding result is recorded as “no binding”.

Another assay deals with T8, NSP PDZ-GST fusion protein (Homo sapiens (Human), UniProt Q92743 370-466).
T8 construct: The label NSP is not explained in the excerpts
T8 sequence (Q92743 other isoform, or with tags, fused parts or gaps limits assumed): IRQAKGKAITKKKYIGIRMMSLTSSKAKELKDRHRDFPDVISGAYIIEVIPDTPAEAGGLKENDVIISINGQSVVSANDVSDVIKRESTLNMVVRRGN
Description: A/G assays.
B4: the binding result was “no binding”.

B1: the binding result is recorded as “no binding”.

Another assay addresses T9, GST-LIM protein PDZ domain fusion protein (Human, UniProt Q96HC4 2-85).
T9 construct: also called Human LIM protein; not shown: glutathione S-transferase encoded by vector pGEX-3X (Pharmacia)
T9 sequence: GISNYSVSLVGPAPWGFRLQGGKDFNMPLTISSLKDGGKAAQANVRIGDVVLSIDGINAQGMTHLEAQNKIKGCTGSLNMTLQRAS
Description: A/G assays.
Turning to B4, the binding result is “no binding”.

For B2, the binding result is recorded as “no binding”.

As to B3, the binding result is reported as “no binding”.

In another assay the target is T10, ConEn PDZ-GST fusion protein (Homo sapiens (Human), UniProt Q969H4 193-287).
T10 construct: The label ConEn is not explained in the excerpts
T10 sequence: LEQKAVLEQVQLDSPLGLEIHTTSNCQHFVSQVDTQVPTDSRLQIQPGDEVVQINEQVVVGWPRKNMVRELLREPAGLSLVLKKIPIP
Description: A/G assays.
For B4, the binding result was “no binding”.

In the case of B1, the binding result is “no binding”.

A further assay has as its target T11, K858 PDZ-GST fusion protein (Homo sapiens (Human), UniProt Q8WWI1 1038-1131).
T11 construct: Order of GST and PDZ part and limits not seen in the excerpts
T11 sequence: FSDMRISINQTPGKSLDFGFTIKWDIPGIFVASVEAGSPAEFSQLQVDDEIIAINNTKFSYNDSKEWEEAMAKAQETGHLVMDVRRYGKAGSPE
Description: A/G assays.
As for B4, the binding result is recorded as “no binding”.

As to B1, the binding result is reported as “no binding”.

For the molecule B2, the binding result was “no binding”.

Regarding B3, the binding result was “no binding”.

The target in a further assay is T12, GST-PDZK1 fusion protein (PDZ domains 2-4) (Homo sapiens, UniProt Q5T2W1 134-457).
T12 construct: not shown: glutathione S-transferase encoded by vector pGEX-3X (Pharmacia)
T12 sequence: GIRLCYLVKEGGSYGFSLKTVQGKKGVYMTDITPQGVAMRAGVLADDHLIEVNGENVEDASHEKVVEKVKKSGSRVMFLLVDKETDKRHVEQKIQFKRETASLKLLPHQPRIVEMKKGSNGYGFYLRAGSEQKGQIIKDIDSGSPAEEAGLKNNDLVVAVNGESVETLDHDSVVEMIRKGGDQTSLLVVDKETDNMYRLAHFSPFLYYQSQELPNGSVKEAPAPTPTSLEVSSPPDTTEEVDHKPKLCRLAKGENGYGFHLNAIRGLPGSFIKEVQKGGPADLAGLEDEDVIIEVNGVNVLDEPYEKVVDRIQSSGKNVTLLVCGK
Description: A/G assays.
Take B4: the binding result was “no binding”.

Regarding B1, the binding result was “no binding”.

As to B2, the binding result is listed as “no binding”.

With B3, the binding result was “no binding”.

The next assay has as its target T13, MINT3 PDZ-GST fusion protein.
T13 construct: Order of GST and PDZ part and limits not seen in the excerpts
T13 chain: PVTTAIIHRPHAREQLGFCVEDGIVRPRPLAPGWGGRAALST
Description: A/G assays.
For the molecule B4, the binding result is on record as “no binding”.

In the case of B1, the binding result is on record as “no binding”.

Take B2: the binding result is “no binding”.

For B3, the binding result was “no binding”.

The target in a further assay is T14, GST-CASK PDZ domain fusion protein (Homo sapiens, UniProt O14936 486-575).
T14 construct: also called Homo sapiens CASK protein
T14 sequence: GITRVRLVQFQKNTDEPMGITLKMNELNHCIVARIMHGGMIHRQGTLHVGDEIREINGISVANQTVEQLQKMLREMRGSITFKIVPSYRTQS
Nature of the assay: A/G assays.
As to B4, the binding result is on record as “no binding”.

For B1, the binding result is given as “no binding”.

On to B2, for which the binding result is listed as “no binding”.

In the case of B3, the binding result is “no binding”.
